In paper PMC4974930:
Like-named read-outs stand apart in the source and are kept apart here.

Assays:
Assay in all cases: cross-linking; 0.3 mg/ml purified F1 mutant in buffer A (20 mM HEPES pH 7.4, 100 mM KCl, 5 mM MgCl2, 5% glycerol) with trans-ABDM (azobenzene-dimaleimide), at least 2 h at room temperature, quenched with 1 mM DTT; 8% SDS-PAGE, intensity of the α/β dimer band relative to the monomer bands
[1] = biological target: E. coli F1 ATPase β subunit, cysteine-less, 6xHis-tagged, V409C (E. coli)
[2] = biological target: E. coli F1 ATPase β subunit, cysteine-less, 6xHis-tagged, V409C (E. coli); remark: listed apart in the source
[3] = biological target: E. coli F1 ATPase β subunit, cysteine-less, 6xHis-tagged, G412C (E. coli)
[4] = biological target: E. coli F1 ATPase β subunit, cysteine-less, 6xHis-tagged, S327C (E. coli)
[5] = biological target: E. coli F1 ATPase β subunit, cysteine-less, 6xHis-tagged, Q324C (E. coli)

## E. coli F1 ATPase α subunit, cysteine-less, A380C (from UniProt P0ABB0 1-513) (natural protein)
[1]
  crosslinking ratio: 0.4
[2]
  crosslinking ratio: 0.3

## E. coli F1 ATPase α subunit, cysteine-less, G379C (from UniProt P0ABB0 1-513) (natural protein)
[3]
  crosslinking ratio: 0.3

## E. coli F1 ATPase α subunit, cysteine-less, N369C (from UniProt P0ABB0 1-513) (natural protein)
[4]
  crosslinking ratio: 0.2

## E. coli F1 ATPase α subunit, cysteine-less, S338C (from UniProt P0ABB0 1-513) (natural protein)
[5]
  crosslinking ratio: 0.2
